B1: CPEB3 Ribozyme (parent)
chain: UAACAGGGGGCCACAGCAGAAGCGUUCACGUCGCAGCCCCUGUCAGAUUCUGGUGAAUCUGCGAAUUCUGCUGUAUAUCUC

Variants of: B1
Experiment: self-cleavage, relative activity (ratio to wild type); higher = more cleavage; in vitro, sequencing
How it was run: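 CPEB3 self-cleaving ribozyme mutant libraries were made by rounds of error-prone PCR, barcoded, and transcribed in vitro with T7 RNA polymerase for 5 hours at 37°C. Cleavage occurred during transcription and a 15 min DNase I step before EDTA stop. RNAs were reverse transcribed with template switching and Illumina-sequenced, with DNA sequencing mapping barcodes to variants. Relative activity is the variant's cleaved/total read fraction divided by wild type's (minimum 5 reads), averaged across three batches.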

Variant	self-cleavage
A56G A77C	0.79
A56G A77U	0.99
A56G A77G	0.77
A56C C62A	0.24
A56G G73U	1.15
A56G G73C	1.26
A56G C68U	0.77
A56G C68A	0.32
G55U U74C	1.35
A57C U58C	0.3
G55U A65G	0.24
G55U A65U	0.31
A56C U80C	0.93
A56U C71G	0.26
A56U C71U	0.46
A56U C71A	0.26
A56U A64U	0.28
A56U A64G	0.51
A56U A64C	0.19
G55U A56U	0.7
A56G G70C	0.21

Variant	self-cleavage
A56G G70A	0.49
A56G G70U	0.25
G55U U58A	0.25
A56U C68U	0.55
A56U U69G	0.46
A56U U69A	0.33
A56U U69C	0.38
A57C A77G	0.45
A56G U60C	0.42
A56G U60A	0.41
A56G U60G	0.34
A56C A75G	0.29
A56U A65U	0.21
A56U A65G	0.29
A56U C81A	1.2
A57C G61C	0.16
A57C G63A	0.58
A56G C81A	0.96
A56G C81G	1.22
A56G C81U	1.13
A56C U58C	0.14

Variant	self-cleavage
A56G A64G	0.8
A56G A64C	0.46
A56G A64U	0.3
A56G U66C	0.29
A56G U66G	0.38
A56G U66A	0.44
A56U U78C	0.61
A56U U78A	0.95
A56U U78G	0.58
A57C A65G	0.17
A56U C59U	0.19
A56U C59G	0.13
A56U C59A	0.28
A56U U67G	0.16
A56U U67A	0.43
A56U U67C	0.26
A56U U74C	1.06
A56U U74A	1.17
G55U G61A	0.6
A56G A65U	0.25
A56G A65G	0.32

Variant	self-cleavage
A56G A65C	0.15
A56G A57U	0.37
A56G A57G	0.42
A56G A57C	0.19
A57C C62U	0.14
G55U U80C	1.06
G55U U80A	1.11
A56U U60C	0.27
A56U U60G	0.24
A56U U60A	0.3
G55U U72C	0.78
A56C U76A	0.71
A57C A64U	0.44
A57C A64G	0.34
A56G U72A	0.64
A56G U72G	0.63
A56G U72C	0.93
G55U U60A	0.27
G55U U60C	0.27
A56G U74C	1.12
A56G U74A	1.11

Source: the RNAGym collection of RNA variant scans (doi:10.1093/nar/gkz1192)
